Measured values as given in IntAct's records for PubMed 29128334.

B1: Peroxiredoxin-5, mitochondrial (Homo sapiens), P30044 (parent)
chain: MGLAGVCALRRSAGYILVGGAGGQSAAAAARRYSEGEWASGGVRSFSRAAAAMAPIKVGDAIPAVEVFEGEPGNKVNLAELFKGKKGVLFGVPGAFTPGCSKTHLPGFVEQAEALKAKGVQVVACLSVNDAFVTGEWGRAHKAEGKVRLLADPTGAFGKETDLLLDDSLVSIFGNRRLKRFSMVVQDGIVKALNVEPDGTGLTCSLAPNIISQL
B2: Dihydrolipoyl dehydrogenase, mitochondrial (Homo sapiens), P09622 (parent)
chain: MQSWSRVYCSLAKRGHFNRISHGLQGLSAVPLRTYADQPIDADVTVIGSGPGGYVAAIKAAQLGFKTVCIEKNETLGGTCLNVGCIPSKALLNNSHYYHMAHGKDFASRGIEMSEVRLNLDKMMEQKSTAVKALTGGIAHLFKQNKVVHVNGYGKITGKNQVTATKADGGTQVIDTKNILIATGSEVTPFPGITIDEDTIVSSTGALSLKKVPEKMVVIGAGVIGVELGSVWQRLGADVTAVEFLGHVGGVGIDMEISKNFQRILQKQGFKFKLNTKVTGATKKSDGKIDVSIEAASGGKAEVITCDVLLVCIGRRPFTKNLGLEELGIELDPRGRIPVNTRFQTKIPNIYAIGDVVAGPMLAHKAEDEGIICVEGMAGGAVHIDYNCVPSVIYTHPEVAWVGKSEEQLKEEGIEYKVGKFPFAANSRAKTNADTDGMVKILGQKSTDRVLGAHILGPGAGEMVNEAALALEYGASCEDIARVCHAHPTLSEAFREANLAASFGKSINF
partner: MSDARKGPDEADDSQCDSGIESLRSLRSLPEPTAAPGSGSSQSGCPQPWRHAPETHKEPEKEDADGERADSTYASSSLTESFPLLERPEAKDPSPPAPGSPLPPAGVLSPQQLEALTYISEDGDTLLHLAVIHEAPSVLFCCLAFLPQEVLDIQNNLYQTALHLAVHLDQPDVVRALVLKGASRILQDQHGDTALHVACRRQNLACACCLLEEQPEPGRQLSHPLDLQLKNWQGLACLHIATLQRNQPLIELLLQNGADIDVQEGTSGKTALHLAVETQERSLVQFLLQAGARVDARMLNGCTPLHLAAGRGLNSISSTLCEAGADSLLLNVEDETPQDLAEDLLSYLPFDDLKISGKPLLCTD
B3: Serine/threonine-protein kinase PINK1, mitochondrial (Homo sapiens), Q9BXM7 (parent)
chain: MAVRQALGRGLQLGRALLLRFTGKPGRAYGLGRPGPAAGCVRGERPGWAAGPGAEPRRVGLGLPNRLRFFRQSVAGLAARLQRQFVVRAWGCAGPCGRAVFLAFGLGLGLIEEKQAESRRAVSACQEIQAIFTQKSKPGPDPLDTRRLQGFRLEEYLIGQSIGKGCSAAVYEATMPTLPQNLEVTKSTGLLPGRGPGTSAPGEGQERAPGAPAFPLAIKMMWNISAGSSSEAILNTMSQELVPASRVALAGEYGAVTYRKSKRGPKQLAPHPNIIRVLRAFTSSVPLLPGALVDYPDVLPSRLHPEGLGHGRTLFLVMKNYPCTLRQYLCVNTPSPRLAAMMLLQLLEGVDHLVQQGIAHRDLKSDNILVELDPDGCPWLVIADFGCCLADESIGLQLPFSSWYVDRGGNGCLMAPEVSTARPGPRAVIDYSKADAWAVGAIAYEIFGLVNPFYGQGKAHLESRSYQEAQLPALPESVPPDVRQLVRALLQREASKRPSARVAANVLHLSLWGEHILALKNLKLDKMVGWLLQQSAATLLANRLTEKCCVETKMKMLFLANLECETLCQAALLLCSWRAAL
partner: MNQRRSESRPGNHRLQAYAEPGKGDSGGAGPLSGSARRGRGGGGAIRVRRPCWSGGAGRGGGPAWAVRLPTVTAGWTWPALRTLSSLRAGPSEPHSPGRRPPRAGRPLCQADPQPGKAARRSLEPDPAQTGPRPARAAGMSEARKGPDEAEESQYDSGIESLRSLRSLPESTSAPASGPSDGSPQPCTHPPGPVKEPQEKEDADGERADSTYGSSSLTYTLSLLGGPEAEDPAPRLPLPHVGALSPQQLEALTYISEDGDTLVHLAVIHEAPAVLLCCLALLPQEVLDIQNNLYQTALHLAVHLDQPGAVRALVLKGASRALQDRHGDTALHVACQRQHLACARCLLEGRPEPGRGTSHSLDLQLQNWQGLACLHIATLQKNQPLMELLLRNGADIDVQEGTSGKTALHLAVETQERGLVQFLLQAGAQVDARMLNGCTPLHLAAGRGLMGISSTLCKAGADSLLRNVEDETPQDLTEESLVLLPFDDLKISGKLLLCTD

Variants of: B1
Settings: with sodc_human SOD1, P00441
Sequence of sodc_human SOD1, P00441 (P00441 whole entry): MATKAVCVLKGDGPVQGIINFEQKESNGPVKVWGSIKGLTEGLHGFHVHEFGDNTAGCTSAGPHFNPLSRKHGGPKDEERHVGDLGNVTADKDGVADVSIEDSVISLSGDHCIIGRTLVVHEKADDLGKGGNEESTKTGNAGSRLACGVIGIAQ

Row | effect of a mutation on the interaction | Variant
1 | with no effect | MGLAGVCALRRSAGYILVGGAGGQSAAAAARRYSEGEWASGGVRSFSRAAAAMAPIKVGDAIPAVEVFEGEPGNKVNLAELFRGKKGVLFGVPGAFTPGCSKTHLPGFVEQAEALKAKGVQVVACLSVNDAFVTGEWGRAHKAEGKVRLLADPTGAFGKETDLLLDDSLVSIFGNRRLKRFSMVVQDGIVKALNVEPDGTGLTCSLAPNIISQL [K83R]
2 | disrupting interaction strength | MGLAGVCALRRSAGYILVGGAGGQSAAAAARRYSEGEWASGGVRSFSRAAAAMAPIKVGDAIPAVEVFEGEPGNKVNLAELFKGRKGVLFGVPGAFTPGCSKTHLPGFVEQAEALKAKGVQVVACLSVNDAFVTGEWGRAHKAEGKVRLLADPTGAFGKETDLLLDDSLVSIFGNRRLKRFSMVVQDGIVKALNVEPDGTGLTCSLAPNIISQL [K85R]
3 | with no effect | MGLAGVCALRRSAGYILVGGAGGQSAAAAARRYSEGEWASGGVRSFSRAAAAMAPIKVGDAIPAVEVFEGEPGNKVNLAKLFKGKKGVLFGVPGAFTPGCSKTHLPGFVEQAEALKAKGVQVVACLSVNDAFVTGEWGRAHKAEGKVRLLADPTGAFGKETDLLLDDSLVSIFGNRRLKRFSMVVQDGIVKALNVEPDGTGLTCSLAPNIISQL [E80K]

Variants of: B2
Settings: with ikbe_mouse Nfkbie

Row | effect of a mutation on the interaction | Variant
4 | disrupting interaction strength | MQSWSRVYCSLAKRGHFNRISHGLQGLSAVPLRTYADQPIDADVTVIGSGPGGYVAAIKAAQLGFKTVCIEKNETLGGTCLNVGCIPSKALLNNSHYYHMAHGKDFASRGIEMSEVRLNLDKMMEQKSTAVKALTGGIAHLFKQNKVVHVNGYGKITGKNQVTATKADGGTQVIDTKNILIATGSEVTPFPGITIDEDTIVSSTGALSLKKVPEKMVVIGAGVIGVELGSVWQRLGADVTAVEFLGHVGGVGIDMEISKNFQRILQKQGFKFKLNTKVTGATKKSDGKIDVSIEAASGGKAEVITCDVLLVCIGRRPFTKNLGLEELGIELDPRGRIPVNTRFQTKIPNIYAIGDVVAGPMLAHKAEDEGIICVEGMAGGAVHIDYNCVPSVIYTHPEVAWVGKSEEQLKEEGIEYKVGKFPFAANSRAKTNADTDGMVKILGQKSTDRVLGAHILGPGAGEMVNEAALALEYGASCEDIARVCHAHPTLAEAFREANLAASFGKSINF [S491A]

Variants of: B3
Settings: with ikbe_human NFKBIE

Row | effect of a mutation on the interaction | Variant
5 | disrupting interaction strength | MAVRQALGRGLQLGRALLLRFTGKPGRAYGLGRPGPAAGCVRGERPGWAAGPGAEPRRVGLGLPNRLRFFRQSVAGLAARLQRQFVVRAWGCAGPCGRAVFLAFGLGLGLIEEKQAESRRAVSACQEIQAIFTQKSKPGPDPLDTRRLQGFRLEEYLIGQSIGKGCSPAVYEATMPTLPQNLEVTKSTGLLPGRGPGTSAPGEGQERAPGAPAFPLAIKMMWNISAGSSSEAILNTMSQELVPASRVALAGEYGAVTYRKSKRGPKQLAPHPNIIRVLRAFTSSVPLLPGALVDYPDVLPSRLHPEGLGHGRTLFLVMKNYPCTLRQYLCVNTPSPRLAAMMLLQLLEGVDHLVQQGIAHRDLKSDNILVELDPDGCPWLVIADFGCCLADESIGLQLPFSSWYVDRGGNGCLMAPEVSTARPGPRAVIDYSKADAWAVGAIAYEIFGLVNPFYGQGKAHLESRSYQEAQLPALPESVPPDVRQLVRALLQREASKRPSARVAANVLHLSLWGEHILALKNLKLDKMVGWLLQQSAATLLANRLTEKCCVETKMKMLFLANLECETLCQAALLLCSWRAAL [A168P]
